{"source": "patent US20070123452A1", "about": "“Method of selecting novel immunosuppressant” (Astellas Pharma Inc., priority 2002, published 2007)", "key": {"[1]": {"tested_on": "histone", "experiment": "HDAC activity with [3H]-labeled acetylated histone as a substrate", "assay_type": "biochemical, human", "conditions": "expressed in 293T cells, crudely purified; compared to wild-type HDAC4", "method": "7 μg of a plasmid for the expression of wild-type HDAC4 and HDAC4 dominant negative variants (H802K, H803L, H863L) was transfected to 293T cells by the calcium phosphate method; 48 hours later, whole cell lysate (cells were disrupted in 25 mM Tris, pH 7.4, 150 mM NaCl, 1 mM CaCl2, 1% Triton X-100, and cell debris was removed by centrifugation) was crudely purified using an anti-Flag antibody column (SIGMA, anti-Flag M2-agarose) (washed with TBS, then eluted with 0.1M Glysine-HCl, pH 3.5), and used for the measurement of HDAC activity. The reaction substrate used was a [^3H]-labeled acetylated histone prepared by cultivating Jurkat cells (2×10^8 cells) in 40 mL of an RPMI (SIGMA) medium containing 300 MBq [^3H] sodium acetate (NENTM Life Science Products, Inc.) for 2 hours, disrupting the cells in Lysis buffer, pH 6.5 (10 mM Tris-HCl, 50 mM Sodium Hydrogen sulfate, 1% Triton X-100, 10 mM MgCl2-6H2O, 8.6% Sucrose), washing the cells with Wash buffer (10 mM Tris-HCl, 13 mM EDTA), and then adding 0.4N H2SO4."}, "[2]": {"tested_on": "N-CoR and HDAC3", "experiment": "Complex forming ability, anti-Flag purification and Western blotting", "assay_type": "binding, human", "conditions": "expressed in PEAK Rapid cells; compared to wild-type HDAC4"}, "[3]": {"tested_on": "GATA-1 transcription (human GATA-1 promoter)", "experiment": "GATA-1 reporter gene assay in HEL cells", "assay_type": "cell-based", "conditions": "10 μg expression plasmid", "method": "Using 15 μg of pGL3-HSI-IE Pro and 10 μg of a plasmid for the expression of various HDACs or HDAC variants, 8.75×10^6 HEL cells (accession number JCRB0062, JCRB) were transformed by the electroporation method (BIO-RAD, Gene Pulser II, voltage 1750 V, charge 10 μF, 365 μL). After transformation, 2 mL of 10% FBS RPMI 1640 was added, and this mixture was dispensed to a 96-well white plate in a ratio of 50 μL/well. After cultivation under conditions of 37° C., 5% CO2 and saturated humidity for 3 hours, 10% FBS RPMI 1640 medium was added at 50 μL/well. After cultivation under conditions of 37° C., 5% CO2 and saturated humidity for 8 hours, luciferase activity in cells were measured according to the manual of the Bright-Glo Luciferase Assay System, and GATA-1 transcriptional activity was measured using a multi-label counter.\n(§1) A mixture of four kinds of HDAC4-targeted siRNA, i.e., siGENE HDAC4 SMARTpool (manufactured by Dharmacon Inc., marketed by B-Bridge international Inc., code number M-003497-00-05), or Non-specific Control Duplex IX (47% GC content) (manufactured by Dharmacon Inc., marketed by B-Bride international Inc., code number D-001206-09-20), and pGL3 IL2 Pro43 were transfected to Jurkat cells by the electroporation method using the same conditions as those mentioned above, and IL-2 transcriptional activity was measured. […]"}, "[4]": {"tested_on": "IL-2 transcription (human IL-2 promoter)", "experiment": "IL-2 reporter gene assay in Jurkat cells", "assay_type": "cell-based", "method": "To 1 μg of the plasmid pGL3 IL2 Pro43, which has a human IL-2 promoter sequence (the −674 to +54 region in the vicinity of the transcription initiation site) upstream of the firefly luciferase gene, and 6 μg of pRL-TK (Promega), the plasmids for the expression of wild-type HDAC4 or each of HDAC4 dominant negative variants (H802K, H803L, H863L) prepared in Example 3 was mixed in various ratios (1, 3 and 10 μg), and 1×10^7 Jurkat cells (ATCC, TIB-152) were transformed by the electroporation method (BIO-RAD, Gene Pulser II, voltage 300 V, charge 975 μF, 400 μL).\nAfter transformation, 2.5 mL of RPMI 1640 containing 10% FBS (MOREGATE) (10% FBS RPMI 1640) was added, and this mixture was dispensed to a 96-well white plate in a ratio of 50 μL/well. After cultivation under conditions of 37° C., 5% CO2 and saturated humidity for 10 hours, a liquid mixture of Phorbol 12-Myristate 13-Acetate (PMA, SIGMA), Ionomycin (SIGMA) and Anti-CD28 antibody (Pharmingen) in 10% FBS RPMI 1640 was added at 50 μL/well (the final concentrations were 50 ng/mL, 1 μg/mL and 75 ng/mL, respectively) to stimulate the Jurkat cells. After cultivation under conditions of 37° C., 5% CO2 and saturated humidity for 12 hours, luciferase activity in the cells was measured according to the manual of the Bright-Glo Luciferase Assay System (Promega) using a multi-label counter (1420 MULTILABEL COUNTER ARVO SX, WALLAC).\n1×10^7 Jurkat cells (ATCC, TIB-152) were transformed with 10 μg of a plasmid for the expression of various HDACs or HDAC variants by the electroporation method (BIO-RAD, Gene Pulser II, voltage 300 V, charge 975 μF, 400 μL). […] After cultivation under conditions of 37° C., 5% CO2 and saturated humidity for 12 hours, luciferase activity in cells were measured according to the manual of the Bright-Glo Luciferase Assay System (Promega), and IL-2 transcriptional activity was measured using a multi-label counter (1420 MULTILABEL COUNTER ARVO SX, WALLAC).\nas §1, with “measured. Likewise, siGENE HDAC4 SMARTpool or Non-specific Control Duplex IX, and pGL3-HSI-IE Pro were transfected to HEL cells, and GATA-1 transcriptional activity was measured.” for “measured.”"}}, "data": [{"molecule": "HDAC4 dominant negative variant (H863L): HDAC4 variant with H863L mutation, amino acid sequence SEQ ID NO:6, expressed from plasmid (protein, listed as Homo sapiens, Dominant negative mutant (H863L) of human histone deacetylase-4 (HDAC4) gene) MSSQSHPDGLSGRDQPVELLNPARVNHMPSTVDVATALPLQVAPSAVPMDLRLDHQFSLPVAEPALREQQLQQELLALKQKQQIQRQILIAEFQRQHEQLSRQHEAQLHEHIKQQQEMLAMKHQQELLEHQRKLERHRQEQELEKQHREQKLQQLKNKEKGKESAVASTEVKMKLQEFVLNKKKALAHRNLNHCISSDPRYWYGKTQHSSLDQSSPPQSGVSTSYNHPVLGMYDAKDDFPLRKTASEPNLKLRSRLKQKVAERRSSPLLRRKDGPVVTALKKRPLDVTDSACSSAPGSGPSSPNNSSGSVSAENGIAPAVPSIPAETSLAHRLVAREGSAAPLPLYTSPSLPNITLGLPATGPSAGTAGQQDTERLTLPALQQRLSLFPGTHLTPYLSTSPLERDGGAAHSPLLQHMVLLEQPPAQAPLVTGLGALPLHAQSLVGADRVSPSIHKLRQHRPLGRTQSAPLPQNAQALQHLVIQQQHQQFLEKHKQQFQQQQLQMNKIIPKPSEPARQPESHPEETEEELREHQALLDEPYLDRLPGQKEAHAQAGVQVKQEPIESDEEEAEPPREVEPGQRQPSEQELLFRQQALLLEQQRIHQLRNYQASMEAAGIPVSFGGHRPLSRAQSSPASATFPVSVQEPPTKPRFTTGLVYDTLMLKHQCTCGSSSSHPEHAGRIQSIWSRLQETGLRGKCECIRGRKATLEELQTVHSEAHTLLYGTNPLNRQKLDSKKLLGSLASVFVRLPCGGVGVDSDTIWNEVHSAGAARLAVGCVVELVFKVATGELKNGFAVVRPPGHHAEESTPMGFCYFNSVAVAAKLLQQRLSVSKILIVDWDVHHGNGTQQAFYSDPSVLYMSLLRYDDGNFFPGSGAPDEVGTGPGVGFNVNMAFTGGLDPPMGDAEYLAAFRTVVMPIASEFAPDVVLVSSGFDAVEGHPTPLGGYNLSARCFGYLTKQLMGLAGGRIVLALEGGHDLTAICDASEACVSALLGNELDPLPEKVLQQRPNANAVRSMEKVMEIHSKYWRCLQRTTSTAGRSLIEAQTCENEEAETVTAMASLSVGVKPAEKRPDEEPMEEEPPL", "values": [{"measurement": "HDAC activity with histone as a substrate", "setting": "[1]", "value": "decreased HDAC activity compared to wild-type HDAC4"}, {"measurement": "HDAC3 and N-CoR in the crudely purified fraction (complex forming ability)", "setting": "[2]", "value": "contained almost no HDAC3 or N-COR"}, {"measurement": "GATA-1 transcriptional activity (luciferase)", "setting": "[3]", "value": "GATA-1 transcription suppression was not observed"}, {"measurement": "IL-2 transcriptional activity (luciferase)", "setting": "[4]; Jurkat cells stimulated with PMA, Ionomycin, Anti-CD28 antibody, expression plasmid 1, 3 and 10 μg", "value": "IL-2 transcription suppression depending on the expression level"}, {"measurement": "IL-2 transcriptional activity (luciferase)", "setting": "[4]; Jurkat cells, 10 μg expression plasmid, compared with HDAC1 and HDAC3 variants", "value": "IL-2 transcription suppression was observed"}]}]}
